B1: CACACA_site2859 (dsDNA)
DNA 1: AAAAAAAAAAAACACACACACACACCCACCCATACA
DNA 2: TGTATGGGTGGGTGTGTGTGTGTGTTTTTTTTTTTT
B2: CACACA_site7194 (dsDNA)
DNA 1: CAAACAAACGAACACACACACACACGCAAAAATGAT
DNA 2: ATCATTTTTGCGTGTGTGTGTGTGTTCGTTTGTTTG
B3: CACACA_site8010 (dsDNA)
DNA 1: CACCCCCACAGACACACACACACACCGATATATATA
DNA 2: TATATATATCGGTGTGTGTGTGTGTCTGTGGGGGTG
B4: CACACA_site2306 (dsDNA)
DNA 1: CCCCCCCACAGACACACACACATACATACCACATAT
DNA 2: ATATGTGGTATGTATGTGTGTGTGTCTGTGGGGGGG
B5: CACACA_negctrl_site669 (dsDNA)
DNA 1: TAACTTTTATCCTTAATTCATATATAAGATTAAATC
DNA 2: GATTTAATCTTATATATGAATTAAGGATAAAAGTTA
B6: CACACA_site2428 (dsDNA)
DNA 1: TACACAAACAAACACACACACACACCCCCACAAAAA
DNA 2: TTTTTGTGGGGGTGTGTGTGTGTGTTTGTTTGTGTA
B7: CACACA_negctrl_site1739 (dsDNA)
DNA 1: ACGATTCAAAGGGAATATAAAATATTATTATCTATA
DNA 2: TATAGATAATAATATTTTATATTCCCTTTGAATCGT
B8: CACACA_negctrl_site1788 (dsDNA)
DNA 1: TTTTATAAAATATAATATAATAATATATGTATAATA
DNA 2: TATTATACATATATTATTATATTATATTTTATAAAA
B9: CACACA_negctrl_site261 (dsDNA)
DNA 1: AACCTAAGCATTCTTCAAATTATATATGTAAAATGA
DNA 2: TCATTTTACATATATAATTTGAAGAATGCTTAGGTT
B10: CACACA_negctrl_site1720 (dsDNA)
DNA 1: TTCTCAAAATTAAAATAACAGATTAACGAACTAACG
DNA 2: CGTTAGTTCGTTAATCTGTTATTTTAATTTTGAGAA
B11: CACACA_negctrl_site694 (dsDNA)
DNA 1: TAATTTATTACCATGTAATTATTACGAATATAGGAT
DNA 2: ATCCTATATTCGTAATAATTACATGGTAATAAATTA
B12: CACACA_negctrl_site640 (dsDNA)
DNA 1: GTATATATATTTCTTTAATAATTAAATTATAAATAT
DNA 2: ATATTTATAATTTAATTATTAAAGAAATATATATAC
B13: CACACA_negctrl_site1292 (dsDNA)
DNA 1: TATATTTAGAATACAATCTTAAAGTTGAAATAAAAT
DNA 2: ATTTTATTTCAACTTTAAGATTGTATTCTAAATATA

The target in one data set is T1, PF3D7_0420300 D1 (Plasmodium falciparum, UniProt Q8I1N6 1956-2015).
T1 sequence: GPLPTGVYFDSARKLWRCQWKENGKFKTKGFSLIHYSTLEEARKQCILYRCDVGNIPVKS
Briefly: gcPBM; about 25 ug protein; PBS, 1% milk, 0.2 mg/ml BSA, salmon testes DNA, 0.03% Triton X-100. The conditions noted are these: tags: N-terminal GST (pGEX-4T-1), kept; label: surface-attached array probe.
For B1, the binding signal is 10.7 ln median PBM intensity, better of two orientations.

On to B2, for which the binding signal was 10.4 ln median PBM intensity, better of two orientations.

B3: the binding signal is 10.5 ln median PBM intensity, better of two orientations.

As for B4, the binding signal was 11 ln median PBM intensity, better of two orientations.

Consider B5, for which the binding signal was 8.85 ln median PBM intensity, better of two orientations.

As for B6, the binding signal was 10.5 ln median PBM intensity, better of two orientations.

The next data set has as its target T2, AP2-HC D1 (Plasmodium falciparum, UniProt Q8IKR9 1316-1374).
T2 sequence: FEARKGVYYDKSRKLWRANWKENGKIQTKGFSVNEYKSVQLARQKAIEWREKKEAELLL
The description is as above. As to conditions: tags: N-terminal GST (pGEX-4T-1), kept; label: surface-attached array probe.
With B7, the binding signal was 9.48 ln median PBM intensity, better of two orientations.

For the molecule B1, the binding signal was 11.8 ln median PBM intensity, better of two orientations.

As for B8, the binding signal was 9.41 ln median PBM intensity, better of two orientations.

As for B2, the binding signal was 11.8 ln median PBM intensity, better of two orientations.

Consider B9, for which the binding signal is 9.41 ln median PBM intensity, better of two orientations.

With B10, the binding signal was 9.4 ln median PBM intensity, better of two orientations.

As to B3, the binding signal was 11.8 ln median PBM intensity, better of two orientations.

B4: the binding signal is 11.9 ln median PBM intensity, better of two orientations.

As to B5, the binding signal was 9.41 ln median PBM intensity, better of two orientations.

On to B11, for which the binding signal is 9.4 ln median PBM intensity, better of two orientations.

As for B6, the binding signal is 12.1 ln median PBM intensity, better of two orientations.

For the molecule B12, the binding signal was 9.37 ln median PBM intensity, better of two orientations.

As to B13, the binding signal was 9.26 ln median PBM intensity, better of two orientations.

The target in the next data set is T3, AP2-LT D1 (Plasmodium falciparum, UniProt Q8IAM1 2520-2577).
T3 sequence: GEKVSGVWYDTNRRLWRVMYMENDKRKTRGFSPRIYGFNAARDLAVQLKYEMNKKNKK
The data set is described as above. As to conditions: tags: N-terminal GST (pGEX-4T-1), kept; label: surface-attached array probe.
On to B7, for which the binding signal is 8.83 ln median PBM intensity, better of two orientations.

On to B1, for which the binding signal was 10.8 ln median PBM intensity, better of two orientations.

Take B8: the binding signal is 8.62 ln median PBM intensity, better of two orientations.

With B2, the binding signal was 10.8 ln median PBM intensity, better of two orientations.

As to B9, the binding signal was 8.81 ln median PBM intensity, better of two orientations.

Consider B10, for which the binding signal is 8.7 ln median PBM intensity, better of two orientations.

On to B3, for which the binding signal was 10.8 ln median PBM intensity, better of two orientations.

Consider B4, for which the binding signal was 11 ln median PBM intensity, better of two orientations.

With B5, the binding signal is 8.63 ln median PBM intensity, better of two orientations.

With B11, the binding signal was 8.68 ln median PBM intensity, better of two orientations.

As for B6, the binding signal is 10.7 ln median PBM intensity, better of two orientations.

Consider B12, for which the binding signal is 8.59 ln median PBM intensity, better of two orientations.

Consider B13, for which the binding signal is 8.65 ln median PBM intensity, better of two orientations.

The values above are taken from article PMC11417369, “DNA sequence and chromatin differentiate sequence-specific transcription factor binding in the human malaria parasite Plasmodium falciparum”.
